Results as given in PMC4029521.

System: T1, AirR (Staphylococcus aureus NCTC8325), ORF:f68b8ed8
T1 sequence: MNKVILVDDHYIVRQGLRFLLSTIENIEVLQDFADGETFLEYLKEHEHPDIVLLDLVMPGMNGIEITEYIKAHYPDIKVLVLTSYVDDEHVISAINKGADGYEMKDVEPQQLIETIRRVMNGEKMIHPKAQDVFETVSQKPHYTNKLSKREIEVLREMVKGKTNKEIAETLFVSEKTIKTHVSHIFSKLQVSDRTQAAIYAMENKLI
Test: EMSA

Sequence | binding
GAATCGCGAACATGGACGAACGATTAGTTGTTAATTTTGAAAATTTATAAAAGGTTAAACGAATGCAGTGAGAGATGTCATTTTAATATCAATGTATGGCTATTTTGTAATGACAATGTAATGAGTTTAGTAAAACATTTCGGGAATATTAAATAGTTGGAAAATGAGAATTAAATCCTTTACTCAGTTGTCTAATTCTTTTAGTATGTGCAGTACAGTTTAATTGAAAACTAACTTTAACTTTAATGGAGGATGTTTTATACATGAAAAAATTAACAGCAGCAGCGATTGC (double strand) [lytM promoter (p-lytM)] | binds
AGCTACACGTAATTTCGCGCTTCGTGCTCTGTTATTGTCATCTAAATCTTCTTCTGTAGCGGTAATCGGTTTACGATTAACACGCTTTAACTTAGGTGTATATGCTTCTGGTATAACTGGTAATCCTCTTGGTACCTCTGGACCTTTTTCATATTCTTGGAACACCTGTTTACATAAACGATCTTCTAAAGAATGGAAAGTGATTACCGAAATCCTGCCATCTACTTTCACTAATTCAATCGCTTGTTCTATTGAATC (double strand) [pbp1 promoter (p-pbp1)] | binds
